Measured values as given in patent US20070238184A1, “Amyloid beta protein channel structure and uses thereof in identifying potential drug molecules for neurodegenerative diseases” (The Regents of the University of California, priority 2005, published 2007).

Assay: Single-channel current recording in planar phospholipid bilayer membranes
Conditions: voltage clamp, peptide added to one side, pH 7.4
Method: Planar phospholipid bilayer membranes were formed as described by Mirzabekov et al. (1999) Meth. Enzymol. 294: 61-74. A bubble of lipid dissolved in heptane was placed at the end of a small (100-300 μm) Teflon tube. Silver/silver chloride electrodes connected the aqueous components bounding the membrane to a voltage clamp. Ion-channel currents through the membrane were recorded by an Axopatch amplifier (Axon Instruments, Sunnyvale, Calif.). Data were filtered at 1 kHz and stored on VHS tape. Membrane capacitance and resistance were monitored continuously to ensure the formation and stability of reproducible membranes and the proper membrane thickness. […] Peptide samples were introduced by perfusing the aqueous solution bounding one side of the membrane.

B1: SAA: human apo-serum amyloid A purchased from PeproTech (protein, UniProt P0DJI8 19-122, looked up)
Serum amyloid A-1 protein: RSFFSFLGEAFDGARDMWRAYSDMREANYIGSDKYFHARGNYDAAKRGPGGAWAAEVITDARENIQRFFGHGAEDSLADQAANEWGRSGKDPNHFRPAGLPEKY
induction of single-channel ion currents / conductances: Current jumps corresponding to the opening or closing of individual ion channels can be observed
